Data taken from patent US20170210813A1 (Regeneron, published 2017).

T1: Macaca fascicularis PDGFRb.mmh (Macaca fascicularis)
T1 construct: Soluble monomeric construct; also called mfPDGFRb.mmh
T1 chain: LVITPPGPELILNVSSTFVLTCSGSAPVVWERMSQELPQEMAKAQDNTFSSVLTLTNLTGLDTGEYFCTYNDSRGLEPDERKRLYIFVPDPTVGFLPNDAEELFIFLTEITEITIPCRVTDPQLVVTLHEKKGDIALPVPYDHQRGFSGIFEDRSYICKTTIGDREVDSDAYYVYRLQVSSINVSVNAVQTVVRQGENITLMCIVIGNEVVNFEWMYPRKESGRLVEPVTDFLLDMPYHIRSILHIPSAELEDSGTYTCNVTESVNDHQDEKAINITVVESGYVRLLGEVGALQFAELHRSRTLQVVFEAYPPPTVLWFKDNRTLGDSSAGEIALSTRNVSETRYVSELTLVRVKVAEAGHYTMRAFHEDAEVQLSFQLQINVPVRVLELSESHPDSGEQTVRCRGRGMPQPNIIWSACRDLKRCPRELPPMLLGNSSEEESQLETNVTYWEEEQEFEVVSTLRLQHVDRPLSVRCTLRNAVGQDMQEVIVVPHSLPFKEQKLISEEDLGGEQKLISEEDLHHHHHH

T2: PDGFR-beta extracellular domain construct D1-D4 (human)
T2 construct: also called D1-4
T2 chain: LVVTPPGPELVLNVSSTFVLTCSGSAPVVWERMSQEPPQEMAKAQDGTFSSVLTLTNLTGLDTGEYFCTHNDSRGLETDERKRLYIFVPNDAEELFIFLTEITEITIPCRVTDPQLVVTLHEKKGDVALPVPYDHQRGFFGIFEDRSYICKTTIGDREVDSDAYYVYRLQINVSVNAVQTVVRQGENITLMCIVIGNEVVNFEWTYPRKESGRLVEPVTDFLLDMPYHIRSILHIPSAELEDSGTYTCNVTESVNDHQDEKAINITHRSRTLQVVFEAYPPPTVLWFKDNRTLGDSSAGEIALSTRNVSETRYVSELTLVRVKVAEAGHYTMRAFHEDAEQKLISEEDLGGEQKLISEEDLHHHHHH

T3: PDGFR-beta extracellular domain construct D1-D2 (human)
T3 construct: also called D1-2
T3 chain: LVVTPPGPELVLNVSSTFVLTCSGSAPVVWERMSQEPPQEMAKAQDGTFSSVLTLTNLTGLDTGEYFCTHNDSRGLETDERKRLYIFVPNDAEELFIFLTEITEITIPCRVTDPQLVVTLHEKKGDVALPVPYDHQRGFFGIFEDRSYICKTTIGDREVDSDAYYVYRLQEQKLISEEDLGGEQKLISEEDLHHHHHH

T4: PDGFR-beta extracellular domain construct D1-D3 (human)
T4 construct: also called D1-3
T4 chain: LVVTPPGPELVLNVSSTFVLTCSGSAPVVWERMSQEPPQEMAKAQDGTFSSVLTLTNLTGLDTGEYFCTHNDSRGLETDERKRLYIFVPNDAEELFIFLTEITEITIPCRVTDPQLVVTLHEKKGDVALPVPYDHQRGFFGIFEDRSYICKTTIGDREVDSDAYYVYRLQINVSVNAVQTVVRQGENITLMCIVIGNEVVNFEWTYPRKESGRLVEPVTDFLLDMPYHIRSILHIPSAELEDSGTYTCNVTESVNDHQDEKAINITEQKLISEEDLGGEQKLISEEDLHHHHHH


How the values were obtained:
[1] = target: T5, full length human PDGFR-beta on HEK293 cells (human, UniProt P09619 33-1106); assay: cell-based or functional assay
[2] = target: T5, full length human PDGFR-beta on HEK293 …; assay: cell-based or functional assay; remark: listed apart in the source
hPDGFRb.mmh [3] = target: T6, hPDGFRb.mmh (human, UniProt P09619 33-531); assay: SPR, mAb captured, 37 C
T6 construct: Soluble monomeric construct; also called soluble human PDGFR-beta.mmh
Procedure: (§1) Antibodies, expressed as either mouse Fc (prefix H1M; H2M) or human Fc (prefix H4H), were captured on their respective anti-Fc sensor surfaces (Mab capture format). […] Kinetic association (kₐ) and dissociation (kd) rate constants were determined by processing and fitting the data to a 1:1 binding model using Scrubber 2.0 curve fitting software.

[4] = target: T1, Macaca fascicularis PDGFRb.mmh; assay: SPR, mAb captured, 37 C
Procedure: as §1

human PDGFRb.hFc = target: T7, human PDGFRb.hFc (human); assay: SPR, mAb captured, 37 C
T7 construct: Soluble dimeric construct with human Fc; also called hPDGFRb.hFc
Procedure: as §1

[5] = target: T2, PDGFR-beta extracellular domain …; assay: SPR, mAb captured, construct at 50nM
Procedure: (§2) Four different anti-PDGFR-beta antibodies were tested for binding to the various constructs by surface plasmon resonance (Biacore). Briefly, 150-200 RU's of anti-PDGFR beta antibody was captured via an anti-human Fc CM5 chip. Next, the individual domain constructs, or full-length PDGFR beta, was applied over the antibody-bound surface at a concentration of 50nM. The ability of the various antibodies to bind to the various domain constructs was measured. (−)=No binding observed; (+)=Binding observed; ND=Not determined.

hPDGFRb.mmh [6] = target: T6, hPDGFRb.mmh; assay: Octet BLI cross-competition, 25 C; hPDGFRb.mmh on anti-Penta-His tips pre-saturated with mAb-1 H4H3305N (row 8)
Procedure: (§3) A cross-competition assay was conducted to assess the ability of select antibodies to compete with one another for binding to human PDGFR-beta. […] Each PDGFR-beta.mmh-coated sensor tip was saturated for 5 min with a first anti-PDGFR-beta antibody (Mab #1; 50 μg/mL). Next, each sensor tip was saturated with a solution of a second anti-PDGFR-beta antibody (Mab #2). The real time response of Mab #2 binding to PDGR-beta.mmh pre-complexed with Mab #1 was then monitored. All assays were performed at 25° C. with a flow rate of 1000 rpm on an Octet RED384 biosensor in Octet HBST buffer according to manufacturer's instructions (ForteBio Corp., Menlo Park, Calif.). Results are illustrated in FIG. 2.

hPDGFRb.mmh [7] = target: T6, hPDGFRb.mmh; assay: Octet BLI cross-competition, 25 C; hPDGFRb.mmh on anti-Penta-His tips pre-saturated with mAb-1 H4H3365N (row 2)
Procedure: as §3

[8] = target: T3, PDGFR-beta extracellular domain …; assay: SPR, mAb captured, construct as analyte
Procedure: as §2

[9] = target: T4, PDGFR-beta extracellular domain …; assay: SPR, mAb captured, construct as analyte
Procedure: as §2

[10] = target: T2, PDGFR-beta extracellular domain …; assay: SPR, mAb captured, construct as analyte
Procedure: as §2

Row | Binder | IC50, blocking PDGF-BB (250 pM) activation, SRE-luciferase [1] [M] | IC50, blocking PDGF-DD (400 pM) activation, SRE-luciferase [1] [M] | Percent Internalization (Relative to Control I) [2] [%] | Kd (hPDGFRb.mmh [3]) [nM] | koff (hPDGFRb.mmh [3]) [s⁻¹] | kon (hPDGFRb.mmh [3]) [M⁻¹ s⁻¹] | t1/2 (hPDGFRb.mmh [3]) [min] | Kd [4] [nM] | koff [4] [s⁻¹] | kon [4] [M⁻¹ s⁻¹] | t1/2 [4] [min] | Kd (human PDGFRb.hFc) [nM] | koff (human PDGFRb.hFc) [s⁻¹] | kon (human PDGFRb.hFc) [M⁻¹ s⁻¹] | t1/2 (human PDGFRb.hFc) [min] | binding result [5] | Response of mAb-2 Binding to hPDGFRβ.mmh Pre-Complexed with mAb-1 (nm) (hPDGFRb.mmh [6]) | Response of mAb-2 Binding to hPDGFRβ.mmh Pre-Complexed with mAb-1 (nm) (hPDGFRb.mmh [7]) | binding result [8] | binding result [9] | also measured
1 | H4H3099S (antibody, human IgG4, V domains shown, human IgG4 Fc (H4H prefix)) VH: QITLKESGPTLVKPTQTLTLTCTFSGFSLTTTGVGVGWIRQPPGKALEWLALIYWNDLKRYSPSLKNRLTITKDTSRHQVVLTMTNMDPMDTATYYCAHRPLYYGSGSGWFDPWGPGTTVTVSS VL: not shown | 2.1e-10 | 1.9e-10 | 88 | 2.39 | 0.000639 | 267000 | 18 | 2.17 | 0.000652 | 300000 | 18 | 0.193 | 0.000105 | 540000 | 110 |  |  | 0.33 | no binding (tested: 50nM) | no binding (tested: 50nM) | binding result [10]: no binding (tested: 50nM)
2 | H4H3094P (antibody, human IgG4, V domains shown, also called H4H3394P) VH: EVQLVESGGGLVQPGGSLRLSCAASGFTFSSYWMSWVRQAPGKGLEWVANMNQDGSETHYVDSVKGRLSISRDNAKKSLFLHMNSLRAEDTAVYFCARDLVPPRQDDYYYYFGMDVWGHGTTVTVSS VL: DIQMTQSPSTLSASVGDRVTITCRASQSISDWLAWYQQKPGKAPKLLIFKASTLESGVPSRFSGSGSGTEFTLTISSLQPDDFATYYCQQYNSYSRTFGQGTKVEIK | 4e-10 | 3.9e-10 | 77 | 6.58 | 0.00147 | 223000 | 8 | 6.69 | 0.0017 | 253000 | 7 | 0.877 | 0.000248 | 283000 | 47 | binds | 0.25 |  |  |  | 

These reach a lower Kd (hPDGFRb.mmh [3]). Values come first.

Row | IC50, blocking PDGF-BB (250 pM) activation, SRE-luciferase [1] [M] | IC50, blocking PDGF-DD (400 pM) activation, SRE-luciferase [1] [M] | Percent Internalization (Relative to Control I) [2] [%] | Kd (hPDGFRb.mmh [3]) [nM] | koff (hPDGFRb.mmh [3]) [s⁻¹] | kon (hPDGFRb.mmh [3]) [M⁻¹ s⁻¹] | t1/2 (hPDGFRb.mmh [3]) [min] | Kd [4] [nM] | koff [4] [s⁻¹] | kon [4] [M⁻¹ s⁻¹] | t1/2 [4] [min] | Kd (human PDGFRb.hFc) [nM] | koff (human PDGFRb.hFc) [s⁻¹] | kon (human PDGFRb.hFc) [M⁻¹ s⁻¹] | t1/2 (human PDGFRb.hFc) [min] | binding result [5] | Response of mAb-2 Binding to hPDGFRβ.mmh Pre-Complexed with mAb-1 (nm) (hPDGFRb.mmh [6]) | Response of mAb-2 Binding to hPDGFRβ.mmh Pre-Complexed with mAb-1 (nm) (hPDGFRb.mmh [7]) | binding result [8] | binding result [9] | Binder | also measured
3 | 1.3e-10 | 1.5e-10 | 81 | 1.84 | 0.00126 | 685000 | 9 | 2.63 | 0.00177 | 670000 | 7 | 0.178 | 0.000291 | 1.63e+06 | 40 | binds | 0.27 | 0.01 |  |  | H4H3374N (antibody, human IgG4, V domains shown, human IgG4 Fc (H4H prefix)) VH: QLQLQESGPGLVKPSETLSLTCTVSGGSITSSSYYWGWIRQPPGKGLEWIGSIYYRGSTNYNPSLKSRVTISVDSSKNQFYLKVSSVTAVDTAVYYCARQNGAARPSWFDPWGQGTLVTVSS VL: EIVLTQSPDTISLSPGERATLSCRASQSISSIYLAWYQQKPGQAPRLLIYGASSRVTGIPDRFSVSGSGTDFTLTISRLEPEDFAVYYCQHYGISPFTFGPGTKVDIR | 
4 | 5e-10 | 4.8e-10 | 79 | 1.93 | 0.000355 | 184000 | 33 | 2.04 | 0.00039 | 191000 | 30 | 0.197 | 4.85e-05 | 247000 | 238 |  |  | 0.26 | no binding (tested: 50nM) | no binding (tested: 50nM) | H4H3305N (antibody, human IgG4, V domains shown, human IgG4 Fc (H4H prefix)) VH: QLQLQESGPGLVKPSETLSLTCIVSGGSISSSSYYWGWIRQPPGKGLEWIGSLYYSGITFYNPSLKSRVTISVDTSKNQFSLTLTSVTAADTAVFYCARHRVMASSPFDHWGQGTLVTVSS VL: not shown | binding result [10]: no binding (tested: 50nM)
